The values below come from US20240009242A1 (STARKAGE THERAPEUTICS, published 2024).

Experiment [1] addresses human DPP4 on the surface of fibroblasts (human) (UniProt P27487). Put plainly: flow cytometry on IPF human lung fibroblasts; 0.5 µg per test; anti-6xHis tag PE secondary.
The target is the same in experiment [2]. Kind of experiment: flow cytometry on COPD human lung fibroblasts; 0.5 µg per test; anti-6xHis tag PE secondary.
The target is the same in experiment [3]. Put plainly: flow cytometry on Wi-38 fibroblasts (PDL<20); 0.5 µg per test; anti-6xHis tag PE secondary.
Experiment [4] shares this target. Kind of experiment: flow cytometry on GM21808 fibroblasts treated with etoposide; 0.5 µg per test; anti-6xHis tag PE secondary.
For experiment [5] the target is unchanged. Kind of experiment: flow cytometry on NHLF (normal human lung fibroblasts); 0.5 µg per test; anti-6xHis tag PE secondary. A general note: Flow cytometry measures light scatter and fluorescence of single cells or particles in a stream.
Experiment [6] shares this target. Kind of experiment: flow cytometry on untreated GM21808 fibroblasts; 0.5 µg per test; anti-6xHis tag PE secondary.
Experiment [7] concerns the target T1, human DEP1 on the surface of fibroblasts (human) (UniProt Q12913).
T1 sequence: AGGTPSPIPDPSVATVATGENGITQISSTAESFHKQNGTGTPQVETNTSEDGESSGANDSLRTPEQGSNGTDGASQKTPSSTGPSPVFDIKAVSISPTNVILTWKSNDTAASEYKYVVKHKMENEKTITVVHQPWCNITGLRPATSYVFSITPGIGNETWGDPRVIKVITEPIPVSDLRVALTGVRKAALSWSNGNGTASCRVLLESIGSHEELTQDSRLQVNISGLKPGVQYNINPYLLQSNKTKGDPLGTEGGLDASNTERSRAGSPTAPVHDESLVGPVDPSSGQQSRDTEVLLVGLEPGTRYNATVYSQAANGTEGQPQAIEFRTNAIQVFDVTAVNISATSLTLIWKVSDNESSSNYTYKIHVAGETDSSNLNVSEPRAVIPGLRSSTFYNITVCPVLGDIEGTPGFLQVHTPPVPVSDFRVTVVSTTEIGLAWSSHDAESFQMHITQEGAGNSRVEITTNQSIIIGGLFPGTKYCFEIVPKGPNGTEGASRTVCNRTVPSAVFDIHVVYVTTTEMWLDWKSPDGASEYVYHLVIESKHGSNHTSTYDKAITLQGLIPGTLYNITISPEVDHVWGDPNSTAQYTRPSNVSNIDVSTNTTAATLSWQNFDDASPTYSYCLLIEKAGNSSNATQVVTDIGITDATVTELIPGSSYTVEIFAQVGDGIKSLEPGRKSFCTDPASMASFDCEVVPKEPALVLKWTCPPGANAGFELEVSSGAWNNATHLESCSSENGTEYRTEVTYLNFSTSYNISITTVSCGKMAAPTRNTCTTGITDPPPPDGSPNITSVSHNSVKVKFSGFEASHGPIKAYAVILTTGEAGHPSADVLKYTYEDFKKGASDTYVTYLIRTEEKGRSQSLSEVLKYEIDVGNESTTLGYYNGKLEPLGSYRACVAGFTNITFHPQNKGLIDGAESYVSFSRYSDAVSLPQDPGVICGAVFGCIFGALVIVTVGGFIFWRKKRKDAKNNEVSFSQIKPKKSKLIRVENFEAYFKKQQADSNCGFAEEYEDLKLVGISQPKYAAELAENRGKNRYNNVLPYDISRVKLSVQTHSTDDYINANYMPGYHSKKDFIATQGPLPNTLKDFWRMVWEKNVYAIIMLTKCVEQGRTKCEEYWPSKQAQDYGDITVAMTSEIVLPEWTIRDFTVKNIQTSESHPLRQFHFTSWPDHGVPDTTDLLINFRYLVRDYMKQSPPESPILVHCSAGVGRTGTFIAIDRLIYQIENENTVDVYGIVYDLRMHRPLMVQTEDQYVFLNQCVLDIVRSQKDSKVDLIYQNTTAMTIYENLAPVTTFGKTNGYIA
Put plainly: flow cytometry on IPF human lung fibroblasts; 0.5 µg per test; anti-6xHis tag PE secondary.

The target of experiment [8] is T1, human DEP1 on the surface of fibroblasts (human). Kind of experiment: flow cytometry on COPD human lung fibroblasts; 0.5 µg per test; anti-6xHis tag PE secondary.
Experiment [9] shares this target. Kind of experiment: flow cytometry on Wi-38 fibroblasts (PDL<20); 0.5 µg per test; anti-6xHis tag PE secondary.
Experiment [10] has the same target. Put plainly: flow cytometry on GM21808 fibroblasts treated with etoposide; 0.5 µg per test; anti-6xHis tag PE secondary.
The target is the same in experiment [11]. Kind of experiment: flow cytometry on NHLF (normal human lung fibroblasts); 0.5 µg per test; anti-6xHis tag PE secondary.
The target is the same in experiment [12]. Put plainly: flow cytometry on untreated GM21808 fibroblasts; 0.5 µg per test; anti-6xHis tag PE secondary.
A further experiment deals with T2, hDEP1 Peptide #4 (human, also: conjugated to BSA).
T2 construct: also called hDEP1 Peptide #4/BSA
T2 peptide: ADVLKYTYEDFKKGASDT
Kind of experiment: ELISA, soluble scFv produced in microtiter plate. The protocol: 96 isolated clones from the second, third and fourth rounds of panning were hand-picked and used to produce the respective soluble scFv in microtiter plate. Each clone was then tested in ELISA against hDEP1 Peptide #4/BSA.
A general note: In an ELISA, binding on a coated surface is turned into a signal by an enzyme label.

Ends that are not written are not given here.

human DPP4 on the surface of fibroblasts (human), sequence (P27487 whole entry): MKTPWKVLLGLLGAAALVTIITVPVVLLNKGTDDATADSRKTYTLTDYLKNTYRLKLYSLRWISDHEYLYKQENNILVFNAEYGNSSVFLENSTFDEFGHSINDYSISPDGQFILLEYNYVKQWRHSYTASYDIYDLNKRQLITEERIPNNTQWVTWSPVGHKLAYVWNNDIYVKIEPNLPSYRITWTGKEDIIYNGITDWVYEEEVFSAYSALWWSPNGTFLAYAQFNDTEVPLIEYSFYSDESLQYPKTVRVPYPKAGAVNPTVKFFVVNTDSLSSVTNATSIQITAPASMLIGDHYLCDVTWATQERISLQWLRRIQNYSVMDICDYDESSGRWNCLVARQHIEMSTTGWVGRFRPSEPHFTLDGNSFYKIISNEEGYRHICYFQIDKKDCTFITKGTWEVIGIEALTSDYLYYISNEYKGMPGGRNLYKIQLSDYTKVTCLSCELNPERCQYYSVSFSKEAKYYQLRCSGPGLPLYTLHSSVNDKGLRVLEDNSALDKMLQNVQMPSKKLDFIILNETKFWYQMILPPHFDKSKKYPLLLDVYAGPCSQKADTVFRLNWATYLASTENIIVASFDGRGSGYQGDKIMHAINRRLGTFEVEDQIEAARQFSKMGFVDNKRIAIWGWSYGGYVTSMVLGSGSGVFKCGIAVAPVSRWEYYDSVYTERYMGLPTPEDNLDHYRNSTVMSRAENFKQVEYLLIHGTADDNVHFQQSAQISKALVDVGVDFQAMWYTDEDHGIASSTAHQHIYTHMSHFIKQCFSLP

B1: 5826-13-R4A-H5 (scFv, part only; not given: linker and His-Flag tag, V domains shown, not shown: another chain or arm of the molecule; large carriers; small tags and cut ends)
VH: EVQLQQSGAGLTKPGGSVKISCKVSGYTFTTYDIGWLKQRPGQALEWIGSINPGGGGTGYNEKFKGKATLTVDKSSSTAFMQLSSLTPEDTAVYYCARPLRRVLDYWGQGVLVTVSS
VL: DIQLTQSPSSLPASLGERVTISCRASQGISNKLNWYQQKPDGTIKPLIYYTSNLQSGVPSRFSGSGSGTDYSLTISSLEPEDFAMYYCQQDASFPPTFGGGTKLELK
As to B1, the MFI was determined as 16700 in experiment [1]; 10100 in experiment [2]; 574 in experiment [3]; 10900 in experiment [4]; 3650 in experiment [5]; 1940 in [6]. The percentage of positive cells in [1] worked out at 79.5%; in [2], 66.5%; in experiment [3], 0.01%; in experiment [4], 61.9%; in experiment [5], 11%; in [6], 8.13%.

B2: 5738-10-R3A-D5 (scFv, part only; not given: linker and His-Flag tag, V domains shown, not shown: another chain or arm of the molecule; small tags and cut ends)
VH: EVQLQQSGAELAKPGSSVKISCKASGYTFTSYYISWIKQTTGQGLEYIGYINTGSGGTNYNEKFKGKATLTVDKSSSTAFMQLSSLTPDDSAVYYCARDKWVDWGQGVMVTVSS
VL: DILMTQSPSSMSVSLGDTVTITCRASQDVGIYVNWFQQKPGKPPRRMIYRATNLADGVPSRFSGSRSGSNYSLTIRSLESEDVADYHCLQYDEWPYTFGAGTKLELK
On to B2, for which the MFI in experiment [7] was found to be 3500; in experiment [8], 1440; in experiment [9], 1040; in [10] it was 1380; in experiment [11] it was 1250; in experiment [12], 632. For the same molecule, the percentage of positive cells was found to be 22.3% in experiment [7]; 0.06% in experiment [8]; 4.81% in [9]; 6.57% in [10]; 0.08% in [11]; 0.07% in [12].

B3: 5738-10-R4A-E7 (scFv, V domains shown)
VH: QVQLKQSGVELAKPGSSVKISCKASGYTFTSDSISWIKQTTGQGLEYIGYIHPGSGVTNYNEKFKGKATLTVDKSSSTAFMQLSSLTPDDSAIYYCARYFDYWGQGVMVTVSS
VL: DILMTQSPSSMSVSLGDTVTITCRASQDVGIYVNWFQQIPGKSPRRLIYRATNLADGVPSRFSGSRSGSDYSLTIASLESEDVADYHCLQYDEFPPTFGSGTKLEIK
notes: anti-hDEP1 scFv, rat 10 library, format VH/VL-6xHis-Flag
With B3, the binding result with hDEP1 Peptide #4 is on record as “binds”.

B4: 5738-10-R4A-G11 (scFv, V domains shown)
VH: QVQLQQPRAELAKPGSSVKISCKASGYTFTNYSISWIKQTTGQGLEYIGYIYPGSGDTNYNEKFKGKATLTVDKSSSTAFMQLSSLTPDDSAVYYCARYFDHWGQGTLVTVSS
VL: DILMTQSPSSMSVSLGDTVTITCRASQDVGIYVNWFQQKPGKSPRRMIYRATTLADGVPSRFSGSRSGSDYSLTISSLESEDVADYHCLQYDEYPPTFGSGTKLEIK
notes: as for B3
Take B4: the binding result in the experiment with hDEP1 Peptide #4 is recorded as “binds”.

B5: 5738-10-R4A-G4 (scFv, V domains shown)
VH: EVQLQQSGVELAKPGSSVKISCKASGYTFTSDSISWIKQTTGQGLEYIGYIHPGSGVTNYNEKFRGKATLTVDKSSSTAFMQLSSLTPDDSAIYYCARYFDYWGQGVMVTVSS
VL: DIVMTQSPSSMSVSLGDTVTITCRASQDVGIYVNWFQQKPGKSPRRMIYRATNLADGVPSRFSGSRSGSDYSLTIASLESEDVADYHCLQYDEFPPTFGSGTKLEIK
notes: as for B3
For B5, the binding result with hDEP1 Peptide #4 is “binds”.

B6: 5738-10-R4A-F12 (scFv, V domains shown)
VH: EVQLQQSGVELAKPGSSVKISCKASGYTFTSDSISWIKQTTGQGLEYIGYIHPGSGVTNYNEKFKGKATLTVDKSSSTAFMQLSSLTPDDSAIYYCARYFDYWGQGVMVTVSS
VL: DILMTQSPSSMSVSLGDTVTITCRASQDVGIYVNWFQQKPGKSPRRMIHRATNLADGVPSRFSGSRSGSDYSLTISSLESEDVADYHCLQYDEYPPTFGSGTKLEIK
notes: as for B3
Regarding B6, in the experiment with hDEP1 Peptide #4, the binding result is “binds”.

B7: 5738-10-R4A-E9 (scFv, V domains shown)
VH: QVQLKQSGAELAKPGSSVKISCKASGYTFTSYYISWIKQTTGQGLEYIGYIHPGSGVTNYNEKFKGKATLTVDKSSSTAFMQLSSLTPDDSAIYYCARYFDYWGQGVMVTVSS
VL: DILMTQSPSSMSVSQGDTVTITCRASQDVGIYVNWFQQKPGKSPRRMIHRATNLADGVPSRFSGSRSGSDYSLTITSLESEDVADYHCLQYDEYPPTFGSGTNLEIK
notes: as for B3
Take B7: in the experiment with hDEP1 Peptide #4, the binding result is “binds”.

B8: 5738-13-R2A-H4 (scFv, part only; not given: linker and His-Flag tag, V domains shown, not shown: another chain or arm of the molecule; small tags and cut ends)
VH: EVKLVESGGGLVQPGRSLKLSCAASGFTFSNYYMAWVRQAPTKGLEWVAYITNGFGSTYYRDSVKGRFTISRDNAKSTLYLQMDSLRSEDTATYYCSTVPLGAFVSWGQGTLVTVSS
VL: DIQMTQTPHSLSASLGETVSIECLASEGISNYLAWYQQKPGKSPQLLISYANPLHDGVPSRFSGSGSGTQFSLKIRNMQPEDEGVYYCQQGYKFPYTFGAGTKLELT
As to B8, the MFI in [7] came out at 5020; in experiment [8], 1480; in [9], 891; in [10], 2210; in [11] it was 1310; in experiment [12], 980. For the same molecule, the percentage of positive cells in [7] stood at 40%; in experiment [8] it was 0.39%; in experiment [9], 4.88%; in experiment [10] it was 12.5%; in [11], 0.58%; in [12], 2.5%.

B9: 5826-13-R3A-D5 (scFv, part only; not given: linker and His-Flag tag, V domains shown, not shown: another chain or arm of the molecule; small tags and cut ends)
VH: EVKLVESGPGLVKPSQSLSLTCSVTGYFITGNYLAWIRKFPGNKMEWIGHIKSSGTTTYNPSLKSRVSITRDTSKNQFFLQLNSVTSEDTATYYCARHGHYVMDVWGQGASVTVSS
VL: DIVLTQSPVLAVSLGQRATISCRASQSVSTSTYNFMHWYQQKPGQQPRLLIYDASHLASSVPARFSGSGSGTDFTLTINPVQADDIATYYCQQSRELPLTFGSGTKLEIK
In the case of B9, the MFI in experiment [1] was 11500; in [2], 4060; in [3] it was 581; in [4] it was 2730; in experiment [5] it was 1740; in experiment [6] it was 1210. The percentage of positive cells was 62.7% in [1]; 10.7% in [2]; 0% in [3]; 16.1% in experiment [4]; 2.02% in experiment [5]; 5.02% in [6].
